Reference: the DeepSol protein solubility set

Assay: soluble on expression in E. coli; label from the status in PepcDB or PDB records

Row | Sequence | soluble on expression in E. coli
1 | MGSDKIHHHHHHVYTIARLHNFGCAFLYSPLTYPLYRSWLRTLTIKGNIIAIGASVADKPVGLALAEILRDGSAKLLSIFVDPNSRCLGIGTALVHSLEEELILRNCTSIEIVYIAGKSTSLALECLLKKCNWPSAKPRMLICKTTTNDMTNAPWMKLSRMPAAYEIFPWMEITFQERVALKKQQEEKRWMASDAIPFDYEQDLEPINSIGLRYKGEVVGWLITHRTAPDTIRYTCSYVRPDIQKMGRIIPLYIRATQLQMEAGISRGTWTVSLMHTSMIAFVKKHMGPYLISLEQSMESSKLLSHL | not soluble
2 | MGSDKIHHHHHHMSRRTQIADMRLSSGVPGFDELIEGGLLPNRLYVVSGPPGSGKTTFCSQFITQGVKEGETCLYVTMHETKTELMQDMAGYDFGFDRAMQSDAIQFLNLVTESGKRTITQFGNEGGLTNRLVAYIRQNDIQRVVIDSTMLLQHFMADVEDEITGFLSALKQTDATTLLISEMTDPSSYSDEHYLAHGVVFFHNFLENGSMTRGVQVIKMRGTAIDCDIREISFSDAGLQVHTDRKVET | not soluble
3 | MRKDVKIYLNHILESIELIEEYTKDKTEDDFFTSKFLQDAVIRRIEIIGEAIKNLPMEFREKYNHIPWKEFAEMRDILIRKYFGVDLGLTWEVVKKDIPKLKEEILKIMEELDKNKNNKYNVFAYGELMKKERLLELINRVPKMIEGRVYGYEKFFDETIGYYGARKKEGSYIDGIILLDITDKELGIFDDYEDLDVYYIREKTTAVSEDGRKYDVYIYLRK | soluble
4 | MLKIGVITMALLSFLNAGWLGNLFDSTPTPYYKMPIDLSKAGNVTETDIRIDEKYSVYVELYYDYRKQKISGDRYGEIIDKYFGRHKLFPIFPIKLTVLKYEKTGTTMVVDKIYYTNSLGRTYSSREIDEFKLQEGSKYHIKVETVEDYPELAELNVEVVIGYIKAK | not soluble
5 | MSLSYEYFPGFYDRLMDSELYDEWLEFSADFIGDTSKKVLDLACGTAEFALRLSFLGHQVTGVDLSKEMVAVAKEKVAAAEINLSILEQDMSKLALNQTFDVITCFCDSLNYLETEQALENTIKAVSDHLTPNGLFLFDVHSVFKIDQGFKDYSYGDSDEEISIIWNSFPGEYPHSVEHELTFYILGEDNMYNRVDELHKERTYPITTYKELLKKYGFSKIDVYADFSHENPTNSSERIFFVARKEGHHHHHH | soluble
6 | SENLYFQGSANAVCQRCQARFSPAERIVNSNGELYHEHCFVCAQCFRPFPEGLFYEFEGRKYCEHDFQMLFA | soluble
7 | MGSDKIHHHHHHMRLNPERPLLSGSCTQYLDWGLPIAMDAVGPGEARRILDRYGADRVLLVGPPGVGKSTVVRSYAEDSASREGLEFVDLSEARSLEDLDTDSTYAFLHIYAPLVRAEDLAFIARRGEGYDWTLPSRLAYLTRPGVRGLVFIDEITNVALPEVQTILFSMVLDKRVAYNRLSSGVEVVAAGNSPRDSPVSQWPPPPLLDRFRLLIRVKPPDLEEWVSWMNSVGRPWDRRVAAVLKVKPVLMYRPPEDEEDKFPTPRSWSQLAWELAKTGAHGDEAVRIAAMVVGRRAAEEARQFLQPDPASLDLSTFPRLDERERLTLLSVEAGRLASQDVVELCRTLEKVGSYGAHYAVWLLMLSGVDTVEAARSCSYVEDLLSRLSSYLG | not soluble
8 | MKKTLATLFLLTCLGSSSAYADNALILQTDFSLKDGAVSAMKGVAFGVDHNLKIFDLTHEIPPYNIWEGAYRLYQTASYWPQGSVFVSVVDPGVGTDRKSIVLKTKNGQYFVSPDNGTLTLVAESLGIESVREIDEKANRLKGSEKSYTFHGRDVYAYTGARLASGAITFEQVGPELPAKVVELSYQKAKATKGEVKGNIPILDIQYGNVWSNISDELLNQAGIKLNDTLCVTISEGSRQKYAGKMPYVASFGDVPEGQPMVYLNSLLNVSVALNMDNFAQKHQVASGADWNIDVKKCDK | not soluble
9 | MRIHDIDPDNRPRERFLRSGKESLSPAELLALILRSGTAGLNIIDTCNKLISEHGLERLADLSIQELQKTPGIGEAKAMQIAAIFELQRRLHFARNMNLKVKGARDVFEYMKGRIPDETKEHLFVLFLSTKNQILRHETITIGTLTASLIHPREIFKAAIRESAHSIILVHNHPSGDVQPSNADKQVTSILKKAGDLLQIELLDHVIVGNNDWFSFRDHALL | not soluble
10 | MMKEMTVQQMTEKVLNKESLFILDVRNESDFRDWKIEGENFAYLNVPYFELVHGVDSIVDRLPKDQDIVVVCAKGGSAAFVAEQLAEAGFDNVYTLAGGMQAWSEHLHQAKVYEDDQLKIYQFIRVGKGCLSYMVLSGDEALVVDPLRFIDVYEQVAQQEGVTITHIVDSHLHADHLSGGKALAERTGAAYYLMKSEGAVFDFEPLEQHETIDFENVHLEVLAVKTPGHTPGSVSFFVNGKWLFSGDTIFVGGLGRPDLGGKVAEWAEDLYHTVYEKVAAMADDVIVLPAHYANLDEEINAEGYVGDTLGRIRARNEMMQNKAKDEFIDLVIQGAKTETPPNFEDIVAINRGLKTVDIETQRELEIGPLEHHHHHH | soluble
11 | MAHHHHHHNQQNKKVEGGYECKYCTFQTPDLNMFTFHVDSEHPNVVLNSSYVCVECNFLTKRYDALSEHNLKYHPGEENFKLTMVKRNNQTIFEQTINDLTF | soluble
12 | MQILQVRLKNLNSLVGEWEIDFTDPAFVSDGIFSITGPTGAGKTTVLDAICLALYGRTPRLGKVSKSENEIMSRQTGECFAEVTFAAQSGCFRCHWSQHRAHKKPDGELQNPRHELAEADSGKILETRLTEVGRQIEKITGMDFARFTRSMLLAQGEFAAFLQAAPDERAPILEQITGTEIYSRISIRVHETRVSARRELDRLSAGLNGIQPLT | not soluble
13 | MAHHHHHHMAWCDASFSVIYGNEELVVVNKPHDVPMDGEACPVTVEKWAWAYLAKGGCADNNAGGGVEKEDDTTRTAGRRRGEKKMVKFVHQLDYATSGVLCVAFSREMAARLAHCFEMRTTRKAYLAVLFGMMPTTSAMQKKLDTDTGVDFLRGSPYASHVRRVSMDDVPGVCFIRKCVIEASGHEEGENADCCATLLEVNLPVGYDTTDHEGFRMTVNGRDARGSVTYLSVLQRGYMTHPTSGCPVPVTKVALFPRTGRRHQLRVHCHAIGFPILGDVTYARIPTPRVAPKVTGAEEVATVGATESINAPNEIGAIEAWQRMMLHAWRLSFPVSVEPLRSGSERYMQKKKRRRETLGLAVAGGDDTTVWTHFETEDPFQLVRPE | not soluble
14 | MHHHHHHSSGRENLYFQGMAKERRRAVLELLQRPGNARCADCGAPDPDWASYTLGVFICLSCSGIHRNIPQVSKVKSVRLDAWEEAQVEFMASHGNDAARARFESKVPSFYYRPTPSDCQLLREQWIRAKYERQEFIYPEKQEPYSAGYREGFLWKRGRDNGQFLSRKFVLTEREGALKYFNRNDAKEPKAVMKIEHLNATFQPAKIGHPHGLQVTYLKDNSTRNIFIYHEDGKEIVDWFNALRAARFHYLQVAFPGASDADLVPKLSRNYLKEGYMEKTGPKQTEGFRKRWFTMDDRRLMYFKDPLDAFARGEVFIGSKESGYTVLHGFPPSTQGHHWPHGITIVTPDRKFLFACETESDQREWVAAFQKAVDRPMLPQEYAVEAHFKHKP | soluble
15 | MLSFINKPRMESKMTIPELRELYQTQQLVEAIIEPSFQEGEWIVEFRHQMGGFVLLTDENGEECRYIDLDSASQSAMAVGFRQVRIENQ | not soluble
16 | MYGPGYAPYYGSPYGDPCYGPAYGPAYGPTYVQPIAQPVYVHDTRAEEACCAGACCMALFCCCAMNS | soluble
17 | MAHHHHHHMEAETSKISEVPLPIPIGINGFGAVGRAVLFASMTEPQVTVVAVNDFSVSINYVLYVLQNESPLSAEDKASLTVVGEYIFYRGTERIRVTQKHDLVDIAWRDAGVSYVVECTGFTSTRDRCWGHLTSGARGVLVAGQSGDAPAIVAGVNDSDLSKIQPIICSGAPLAVALAPFIRILHESFGVEDCSYTAIHAIQPVEPNAARSANSQDWRQTRVTLDSITPYAHTGMTTFCKLMPTLSSRITGSAFQVPVTKGCAIDMLLRFKQPVAKESVDEALIEASKDRLKDVLFVSKRDFISRDLLPDGKLCYDPSASQCVREGELYKFTLWFDLERSFAKRLISLIPVMNDADAKKNNV | soluble
18 | PNKFCPGCGHGIVNRIIAEVIEEHGYEKNHVLTLGVGCVCNMNFSWNGDKMQTAHGRASSTAIGVKVALPDTLVMTYQGDGDAYVIGLSETLNTAYRNHNVTVFVINNNNFAMTGGQMSWTTMPGQVTTTSVNGRDIKTTGSPLKVPEMVANFFDVAYVARGSVHSPKEIINLKKYIKNAIEAQLNGEGYSLVEILAPCPTNWGVSLEKSIKWMEEEIVPYYALGEFKQRDG | not soluble
19 | MSDFLKDCFQKIGWEKDHVSFGDLPLFLKAMAYRFPFENRAVLAKENYKITKEELWRRLLKDQHGGLCYDLNGFLYFVLREAGFHVKLIRGTVYAGDQEGWALEGTHAAVWLSAENGDYLVDIGFGINLALQPIPLSGETVQSPVGSFRIKKEETEKGSYVLLMDKGEGWQIGYAFTLEESDLGDLDNMKDIIHSHEKSPFNKSLLASKLTPSGRMVMSERHFTIYENGGNIQKSDIGPSGFEEKLNTH | not soluble
20 | MNRQLLLDVLPAPAPALNNYIAGPNGQALAAAHALTAGRAIYLWGPAGCGRTHLLRGLSARPEAIYIDAARAAQSLRELAEADSTAPMPRLVAVDDVHRMDDARQAGLFALYNRWRESAATGRAFALAVSGDRAPMSLPLREDLRTRLGWDLVFRLDPLSDADKLAALTAQAAERGLQLAPEVINWMLTHHERDIRKLAALLDALDRYSLATGRPITIPLLRAMLADPHSQATLEHHHHHH | soluble
21 | MGSDKIHHHHHHMAVEKSTSIKNNSIKTVNVAVAVIHYQNQYLLGFRAASQHQGNRYEFVGGKIDAHETAKQALIREVAEETGINIANNTAVKLGRLHHDYGDKQVCLQVYRIEVTAQQYAQYKNLSCGLEGQKLTWVDKAKLLAGHYDLPAANKTILVWLQLPVQITITYPLAHFNGFPNPRAAWSQYHHEHIAADALVYMRIKVAGAEDSIERLLQLRSDIKAIAPDHLHTDKADNAVINRQIIAGHLTQTQLMQWSSSVAKESMSYSALSTNLPLIVSCHDADSINAANQLAFFRLQQQLPPVIGIFLAPVECTQTHPDTPPLGWEAWSKLAELADMPVIGLGGLSPVMSEQAMLHGGIAVAGIRQFLK | not soluble
22 | MHIEFREFNPFDVWIWLKFSNVPSEREKQYVEEVFNSWFYLGKLGAFNAENLQVQDTGLDISYMDYDPSAYNKSFLALMHNMSEFEYEGEWGRCWFDLGTSDAIALDLLLNSLTQLSEEYVTIEILYIGGENSDWPVEDSETHANADSIYDY | not soluble
23 | MSLDLASKYFNDIDWRYVDHSSGLAPMQSFAFDDTFSESVGKDLSCNVVRTWIHQHTVILGIHDSRLPFLKDGIKYLTDEIGYNAIVRNSGGLGVVLDQGVLNISLIFKGQTETTIDEAFTVMYLLICKMFENEDVEIDTREIEHSYCPGKFDLSIDGKKFAGISQRRVRGGIAVQIYLCVEGSGSERAEMMRVFYEHALKGEVTKFKYPDIHPECMASLETLFEREIKVQDVMFQLLHAIKDLGGNLNMDPITEDEWTRYEGYFDKMIDRNEKMNRSIEADEGHHHHHH | soluble
24 | MDYQLYTLPSGLHVVYKPHAGEVTYAGFAIGVGTRHESSRHHGLAHLTEHMLFKGTSLRNSLQIIRRMEEVGAELNAFTEKESTYVYCIFPKAHFNRATNLLFDIVQHSRFPEEELTKEKTVVIDEIDSYRDNPSELIFDEFENILFRHHPLGHNILGTEASVSRITGQIGRNFLRRHYRPDNMIFFLAGEADLSDWPLNPAEKVSIRNTDGTPLHTLREGFLPRTIRRHKDTYQHHILMGGPAYSLHDDRRIPLSLLNNILGGPGMNSRLNLSLREEHGYVYNVESNYTPYSDTGVFNIYLGCAPRYAEAAMELVRKELRYLIEHPLSPIELESAKRQFKGQLIVSADNKESTFLSLGKSMLLYGKYDPLSDIFHRIDAITSDRLREIAAEVLNPDSMLTLIYC | not soluble
